In the assay the target is Vip3Aa protoxin (proVip3Aa, without Flag tag) (Bacillus thuringiensis). Kind of assay: MST; labeled proVip3Aa (333 nM) or labeled actVip3Aa (216 nM) kept constant, GST-PHB2 titrated from 0.2 nM to 7 μM; PBS pH 7.5; Monolith NT.115 Pico.

The source of these data is article PMC9037526.

As to “GST-PHB2 (prohibitin 2 of Spodoptera frugiperda fused to glutathione-S-transferase) (natural protein)”, the Kd (commonly the concentration at which binding is half-saturated) turned out to be 45.9 nM.
